Experimental data: publication PMC5375031 (Nature, 2017)
Where no end group is shown, it is not given here.

Assays:
[1] = target: T1, TAZ1 domain of CBP (residues 340-439 of mouse CBP) (mouse, UniProt P45481 340-439); test: fluorescence polarisation
[2] = target: T1, TAZ1 domain of CBP (residues 340-439 of …); test: fluorescence polarisation + BLI
[3] = target: T1, TAZ1 domain of CBP (residues 340-439 of …); test: stopped-flow fluorescence
[4] = target: T1, TAZ1 domain of CBP (residues 340-439 of …); test: fluorescence polarisation; remark: listed apart in the source

T1 sequence (P45481 340-439): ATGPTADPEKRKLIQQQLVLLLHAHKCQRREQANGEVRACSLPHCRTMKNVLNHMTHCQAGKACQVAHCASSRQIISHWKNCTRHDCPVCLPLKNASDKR

B1: HIF-1α 776-826 C800V labeled with Alexa Fluor 594 at position 780 (peptide, UniProt Q16665 776-826, looked up)
chain: SDLAC(Alexa Fluor 594)RLLGQSMDESGLPQLTSYDVEVNAPIQGSRNLLQGEELLRALDQVN
binding result [1]: binds

B2: HIF-1α C-terminal transactivation domain peptide (residues 776-826) (peptide, UniProt Q16665 776-826, looked up)
chain: SDLACRLLGQSMDESGLPQLTSYDCEVNAPIQGSRNLLQGEELLRALDQVN
apparent Kd (displacing labeled HIF-1α from TAZ1) [1]: 10 ± 1 nM
Kd [2]: 10 nM

B3: HIF-1α 776-826 C800V labeled with Alexa Fluor 488 at position 780 (peptide, UniProt Q16665 776-826, looked up)
chain: SDLAC(Alexa Fluor 488)RLLGQSMDESGLPQLTSYDVEVNAPIQGSRNLLQGEELLRALDQVN
binding result [3]: binds

B4: CITED2 transactivation domain peptide (residues 216-269) (peptide, UniProt Q99967 216-269, looked up)
chain: NVIDTDFIDEEVLMSLVIEMGLDRIKELPELWLGQNEFDFMTDFVCKQQPSRVS
Kd [2]: 10 nM

B5: CITED2 216-269 labeled with Alexa Fluor 594 at Cys 261 (peptide, UniProt Q99967 216-269, looked up)
chain: NVIDTDFIDEEVLMSLVIEMGLDRIKELPELWLGQNEFDFMTDFVC(Alexa Fluor 594)KQQPSRVS
binding result [4]: binds
